Six molecules from patent publication US11278600B2, “Human alpha-galactosidase variants” (Codexis, Inc., priority 2014, dated 2022) can be followed below.

What all share (type): biochemical
Series [1] can be described thus: HTP-analysis of supernatants pretreated with base (MUGal hydrolysis). As to conditions: challenge at pH 7.6; activity of the variant/activity of Rd2BB (SEQ ID NO: 10); yeast culture supernatant. Put shortly: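 GLA variants were secreted by transformed INVSc1 yeast grown 66-84 h at 30° C. Supernatants were exposed to neutral-to-basic buffers (pH 7.0-9.7) at 37° C for 1-18 h, then assayed with MUGal in acidic citrate/McIlvaine buffer, with fluorescence read after quenching.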

Series [2] is described as follows: HTP-analysis of yeast culture supernatants, no challenge (MUGal hydrolysis). As to conditions: activity of the variant/activity of Rd2BB (SEQ ID NO: 10), yeast culture supernatant. A digest of the protocol: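 Activity read as 4-methylumbelliferyl α-D-galactopyranoside hydrolysis: fluorescence (355/448 nm) after sodium carbonate stop, following 30-180 min at 37° C with 2 mM MUGal stock at pH 4.6–4.8. Enzyme source is unchallenged culture supernatant of INVSc1 yeast expressing GLA variants, grown 66-84 h at 30° C.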

Series [3] is described as follows: HTP-analysis of supernatants pretreated with bovine serum (MUGal hydrolysis). Particulars: activity of the variant/activity of Rd2BB (SEQ ID NO: 10), yeast culture supernatant. How it is done: Yeast (INVSc1) cells transformed with vectors expressing GLA and GLA variants using the lithium acetate method were selected on SD-Ura agar plates. After 72 h incubation at 30° C. colonies were placed into the wells of Axygen® 1.1 ml 96-well deep well plates filled with 200 μl/well SD-Ura broth (2 g/L SD-Ura, 6.8 g/L yeast nitrogen base without amino acids [Sigma Aldrich]), 3.06 g/L sodium dihydrogen phosphate, 0.804 g/L disodium hydrogen phosphate, pH 6.0 supplemented with 6% glucose. The cells were allowed to grow for 20-24 hours in a Kuhner shaker (250 rpm, 30° C., and 85% relative humidity). Overnight culture samples (20 μL) were transferred into Corning Costar® 96-well deep plates filled with 380 µL of SD-ura broth supplemented with 2% glucose. The plates were incubated for 66-84 h in a Kuhner shaker (250 rpm, 30° C., and 85% relative humidity). The cells were then pelleted (4000 rpm×20 min), and the supernatants isolated and stored at 4° C. prior to analysis.
GLA variants were challenged with bovine serum to simulate the conditions the variants encounter following infusion into a patient. First, 20 μL of yeast culture supernatant and 80 μL, of bovine serum were added to the wells of a 96-well round bottom plate. The plates were sealed and incubated at 37° C. for 1 h. For the assay, 50 μL of serum-challenged sample was mixed with 25 μL, of 1 M citrate buffer pH 4.3 and 25 μL, of 4 mM MUGal in McIlvaine buffer pH 4.8. The reactions were mixed briefly and incubated at 37° C. for 180 minutes, prior to quenching with 100 μL, of 1 M sodium carbonate. Hydrolysis was analyzed using a SpectraMax® M2 microplate reader monitoring fluorescence (Ex. 355 nm, Em. 448 nm).

The nature of series [4]: HTP-analysis of supernatants pretreated with acid (MUGal hydrolysis). As to conditions: challenge at pH 4.2; activity of the variant/activity of Rd2BB (SEQ ID NO: 10); yeast culture supernatant. A digest of the protocol:
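Yeast INVSc1 supernatant, GLA variants; acid challenge: McIlvaine pH 3.3-4.3, 37° C., 1-3 h. Assay: MUGal in McIlvaine pH 4.8 plus citrate pH 4.3, 37° C., 30-180 min, Na2CO3 stop, Ex 355/Em 448 nm.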

B1: 243 (protein)
chain: LDNGLARTPTMGWLHWERFMCNLDCQEEPDSCISEKLFMEMAELMVSEGWKDAGYEYLCIDDCWMAPQRDSEGRLQADPQRFPHGIRQLANYVHSKGLKLGIYADVGNKTCAGFPGSFGYYDIDAQTFADWGVDLLKFDGCYCDSLENLADGYKHMSLALNRTGRSIVYSCEWPLYMWPFQKPNYTEIRQYCNHWRNFADIDDSWASIKSILDWTSFNQERIVDVAGPGGWNDPDMLVIGNFGLSWDQQVTQMALWAIMAAPLFMSNDLRHISPQAKALLQDKDVIAINQDPLGKQGYQLRKGDNFEVWERPLSGLAWAVAMINRQEIGGPRSYTIPVASLGGGVACNPGCFITQLLPVKRKLGFYEWTSRLRSHINPTGTVLLQLENTMQMSLKDLL
modifications: Synthetic Polypeptide sequence of Variant No. 243 of mature Human GLA
B1: the “Relative Activity of GLA Variants After Challenge at pH 7.6” value (“Relative Activity … at pH 7.6” below) in series [1] is recorded as “+++ (+++ = >2.5 relative activity over Rd2BB (SEQ ID NO: 10))”. The “Relative Activity of GLA Variants After No Challenge (NC)” value in series [2] was “+++ (+++ = >2.5 relative activity over Rd2BB (SEQ ID NO: 10))”. Moreover, the “Relative Activity of GLA Variants After Challenge with Serum” value (“Relative Activity … with Serum” below) in series [3] was “+++ (+++ = >2.5 relative activity over Rd2BB (SEQ ID NO: 10))”. For the same molecule, in series [4], the “Relative Activity of GLA Variants After Challenge at pH 4.2” value (“Relative Activity … at pH 4.2” for short) is reported as “+++ (+++ = >2.5 relative activity over Rd2BB (SEQ ID NO: 10))”.

B2: 247 (protein)
chain: LDNGLARTPTMGWLHWERFMCNLDCQEEPDSCISEKLFMEMAELMVSEGWKDAGYEYLCIDDCWMAPQRDSEGRLQADPQRFPHGIRQLANYVHSKGLKLGIYADVGNKTCAGFPGSFGYYDIDAQTFADWGVDLLKFDGCYCDSLENLADGYKHMSLALNRTGRSIVYSCEWPLYMWPFQKPNYTEIRQYCNHWRNFADIDDSWASIKSILDWTSFNQEKIVDVAGPGGWNDPDMLVIGNFGLSWDQQVTQMALWAIMAAPLFMSNDLRHISPQAKALLQDKDVIAINQDPLGKQGYQLRQGDNFEVWERPLSGLAWAVAVINRQEIGGPRSYTIAVASLGDGVACNPACFITQLLPVKRKLGFYEWTSRLKSHINPTGTVLLQLENTMQMSLKDLL
modifications: Synthetic Polypeptide sequence of Variant No. 247 of mature Human GLA
B2: the “Relative Activity … at pH 7.6” value in series [1] is recorded as “+++ (+++ = >2.5 relative activity over Rd2BB (SEQ ID NO: 10))”. Also, the “Relative Activity of GLA Variants After No Challenge (NC)” value in series [2] is “+++ (+++ = >2.5 relative activity over Rd2BB (SEQ ID NO: 10))”. Besides, the “Relative Activity … with Serum” value in series [3] is given as “+++ (+++ = >2.5 relative activity over Rd2BB (SEQ ID NO: 10))”. Moreover, in series [4], the “Relative Activity … at pH 4.2” value is listed as “+++ (+++ = >2.5 relative activity over Rd2BB (SEQ ID NO: 10))”.

B3: 245 (protein)
chain: LDNGLARTPTMGWLHWERFMCNLDCQEEPDSCISEKLFMEMAELMVSEGWKDAGYEYLCIDDCWMAPQRDSEGRLQADPQRFPHGIRQLANYVHSKGLKLGIYADVGNKTCAGFPGSFGYYDIDAQTFADWGVDLLKFDGCYCDSLENLADGYKHMSLALNRTGRSIVYSCEWPLYMWPFQKPNYTEIRQYCNHWRNFADIDDSWASIKSILDWTSFNQERIVDVAGPGGWNDPDMLVIGNFGLSWDQQVTQMALWAIMAAPLFMSNDLRHISPQAKALLQDKDVIAINQDPLGKQGYQLRKGDNFEVWERPLSGLAWAVAVINRQEIGGPRSYTIAVASLGKGVACNPACFITQLLPVKRKLGLYEWTSRLKSHVNPTGTVLLQLENTMQMSLKDLL
modifications: Synthetic Polypeptide sequence of Variant No. 245 of mature Human GLA
Turning to B3, the “Relative Activity … at pH 7.6” value in series [1] was “+++ (+++ = >2.5 relative activity over Rd2BB (SEQ ID NO: 10))”. In addition, the “Relative Activity of GLA Variants After No Challenge (NC)” value in series [2] is on record as “++ (++ = 1.5 to 2.5 relative activity over Rd2BB (SEQ ID NO: 10))”. For the same molecule, the “Relative Activity … with Serum” value in series [3] is “++ (++ = 1.5 to 2.5 relative activity over Rd2BB (SEQ ID NO: 10))”. In addition, the “Relative Activity … at pH 4.2” value in series [4] is given as “+++ (+++ = >2.5 relative activity over Rd2BB (SEQ ID NO: 10))”.

B4: 246 (protein)
chain: LDNGLARTPTMGWLHWERFMCNLDCQEEPDSCISEKLFMEMAELMVSEGWKDAGYEYLCIDDCWMAPQRDSEGRLQADPQRFPHGIRQLANYVHSKGLKLGIYADVGNKTCAGFPGSFGYYDIDAQTFADWGVDLLKFDGCYCDSLENLADGYKHMSLALNRTGRSIVYSCEWPLYMWPFQKPNYTEIRQYCNHWRNFADIDDSWASIKSILDWTSFNQERIVDVAGPGGWNDPDMLVIGNFGLSWNQQVTQMALWAIMAAPLFMSNDLRHISPQAKALLQDKDVIAINQDPLGKQGYQLRKGDNFEVWERPLSGDAWAVAMINRQEIGGPRSYTIPVASLGKGVACNPACFITQLLPVKRKLGFYEWTSRLRSHINPTGTVLLQLENTMQMSLKDLL
modifications: Synthetic Polypeptide sequence of Variant No. 246 of mature Human GLA
As for B4, in series [1], the “Relative Activity … at pH 7.6” value is given as “+++ (+++ = >2.5 relative activity over Rd2BB (SEQ ID NO: 10))”. For the same molecule, the “Relative Activity of GLA Variants After No Challenge (NC)” value in series [2] is “+++ (+++ = >2.5 relative activity over Rd2BB (SEQ ID NO: 10))”. Further, in series [3], the “Relative Activity … with Serum” value was “+++ (+++ = >2.5 relative activity over Rd2BB (SEQ ID NO: 10))”. Moreover, in series [4], the “Relative Activity … at pH 4.2” value is recorded as “+++ (+++ = >2.5 relative activity over Rd2BB (SEQ ID NO: 10))”.

B5: 244 (protein)
chain: LDNGLARTPTMGWLHWERFMCNLDCQEEPDSCISEKLFMEMAELMVSEGWKDAGYEYLCIDDCWMAPQRDSEGRLQADPQRFPHGIRQLANYVHSKGLKLGIYADVGNKTCAGFPGSFGYYDIDAQTFADWGVDLLKFDGCYCDSLENLADGYKHMSLALNRTGRSIVYSCEWPLYMWPFQKPNYTEIRQYCNHWRNFADIDDSWASIKSILDWTSFNQERIVDVAGPGGWNDPDMLVIGNFGLSWDQQVTQMALWAIMAAPLFMSNDLRHISPQAKALLQDKDVIAINQDPLGKQGYQLRKGDNFEVWERPLSGDAWAVAMINRQEIGGPRSYTIAVASLGKGVACNPGCFITQLLPVKRKLGFYEWTSRLRSHINPTGTVLLQLENTMQMSLKDLL
modifications: Synthetic Polypeptide sequence of Variant No. 244 of mature Human GLA
B5: the “Relative Activity … at pH 7.6” value in series [1] was “+++ (+++ = >2.5 relative activity over Rd2BB (SEQ ID NO: 10))”. The “Relative Activity of GLA Variants After No Challenge (NC)” value in series [2] is recorded as “+++ (+++ = >2.5 relative activity over Rd2BB (SEQ ID NO: 10))”. Besides, the “Relative Activity … with Serum” value in series [3] was “+++ (+++ = >2.5 relative activity over Rd2BB (SEQ ID NO: 10))”. The “Relative Activity … at pH 4.2” value in series [4] is on record as “+++ (+++ = >2.5 relative activity over Rd2BB (SEQ ID NO: 10))”.

B6: 248 (protein)
chain: LDNGLARTPTMGWLHWERFMCNLDCQEEPDSCISEKLFMEMAELMVSEGWKDAGYEYLCIDDCWMAPQRDSEGRLQADPQRFPHGIRQLANYVHSKGLKLGIYADVGNKTCAGFPGSFGYYDIDAQTFADWGVDLLKFDGCYCDSLENLADGYKHMSLALNRTGRSIVYSCEWPLYMWPFQKPNYTEIRQYCNHWRNFADIDDSWASIKSILDWTSFNQETIVDVAGPGGWNDPDMLVIGNFGLSWNQQVTQMALWAIMAAPLFMSNDLRHISPQAKALLQDKDVIAINQDPLGKQGYQLRQGDNFEVWERPLSGLAWAVAVINRQEIGGPRSYTIAVASLGGGVACNPACFITQLLPVKRKLGFYEWTSRLKSHINPTGTVLLQLENTMQMSLKDLL
modifications: Synthetic Polypeptide sequence of Variant No. 248 of mature Human GLA
In the case of B6, in series [1], the “Relative Activity … at pH 7.6” value is listed as “+ (+ = 0.5 to 1.5 relative activity over Rd2BB (SEQ ID NO: 10))”. Besides, the “Relative Activity of GLA Variants After No Challenge (NC)” value in series [2] was “+ (+ = 0.5 to 1.5 relative activity over Rd2BB (SEQ ID NO: 10))”. Further, in series [3], the “Relative Activity … with Serum” value was “+ (+ = 0.5 to 1.5 relative activity over Rd2BB (SEQ ID NO: 10))”. For the same molecule, the “Relative Activity … at pH 4.2” value in series [4] is listed as “+ (+ = 0.5 to 1.5 relative activity over Rd2BB (SEQ ID NO: 10))”.
